Residue numbers refer to the chain shown, from its start.
T1: human GITR-His (human, UniProt Q9Y5U5 26-161)
T1 construct: Bought from Acro biosystems; also called GITR-His (Acro biosystems); antigen GITR-His
T1 sequence: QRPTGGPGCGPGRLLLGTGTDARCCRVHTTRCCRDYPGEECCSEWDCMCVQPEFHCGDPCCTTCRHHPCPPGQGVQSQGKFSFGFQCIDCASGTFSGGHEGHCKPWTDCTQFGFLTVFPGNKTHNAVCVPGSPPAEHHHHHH

B1: Nb-20 (VHH)
VHH: QVQLQESGGGSVQAGGSLRLSCASSGYSRTSRWMAWFRQAPGKEREGVAAIYTGGSSTLYANSMADRVTISQDNAKNTVYLRMNNLKPEDTAMYYCAADKLAGDFWLVDRWRAWGQGTQVTVSS
notes: Tested as crude extract from E. coli (osmotic shock)
B2: Nb-03 (VHH)
VHH: QVQLQESGGGSVQAGGSLRLSCAASGYTYSGYCMGWFRQAPGKEHEGVASIVSGLGRPYYADSVKGRFTISQDNAKNTVYLQMNSLKPEDTAMYYCAAEWATKLCSEIPATEWDYWGQGTQVTVSS
notes: as for B1
B3: Nb-13 (VHH)
VHH: QVQLQESGGGSVQAGGSLRLSCTASSNTGRMGWFRQAPGKEREGVTAVDNFGRTNYAKYVKGRFTISKDNAKNTLYLQMNSLKPEDTAMYYCAADPWGRGAALTPNEYIYWGQGTQVTVSS
notes: as for B1
B4: Nb-01 (VHH)
VHH: QVQLQESGGGLVQPGGSLRLSCTASGLTFDDYAMGWFRQAPGKGREGVSLITWSGSSTYYADSVKGRFTVSRDTATNTLVLQMNSLKPEDTAMYYCAADPRSGGYYSSPPPPAVYRYLRFWGQGTQVTVSS
notes: as for B1
B5: Nb-05 (VHH)
VHH: QVQLQESGGGLVQPGGSLRLSCAASGFTFSNKVMSWVRQAPGKGFEWVSSIARGGDWTTYADSVEGRFTISRDNAKNTLYLQLNSLKTEDTAMYYCAQAENWKTPPGQGTQVTVSS
notes: as for B1
B6: Nb-16 (VHH)
VHH: QVQLQESGGGSVQAGGSLRLSCAASGYTYNKYSWGWFRQAPGKEREGVAGIDSDGSTSYADSVKGRFTISKDNTKNTLYLQMNSLKPEDTAMYYCAASDWVSAIQALGVLAVRPYEYWGQGTQVTVSS
notes: as for B1
B7: Nb-07 (VHH)
VHH: QVQLQESGGGLVQAGGSLKLSCTVSGFAFGSSHMSWVRRAPGKGLEWVSTIHSGGGFGDYANSVQGRFTISRDVAKNTLYLQMNSLKPEDTAIYYCALATDWRKPPGQGTQVTVSS
notes: as for B1
B8: Nb-10 (VHH)
VHH: B7 VHH with A14P, K19R, T23A, V24A
notes: as for B1
B9: Nb-09 (VHH)
VHH: QVQLQESGGGLVQPGGSLRLSCGASGFTFSSTAMWWFRQAPGKGLEWVSSITSDVSGTYYADSVQGRFTISRDNGKNTVYLQMNSLRSEDTALYYCATSCGFSGGTWSCKYRGQGTQVTVSS
notes: as for B1
B10: Nb-22 (VHH)
VHH: QVQLQESGGGSVQAGGSLRLSCAASGYTFTTAYMGWFRQAPGKEREGVAAIDSDGRTEYADAVKGRFTISKDNAKNTLYLQMNSLKPEDTAMYYCAADKDDWLLLHGRSLFPSAFAYWGQGTQVTVSS
notes: as for B1
B11: Nb-19 (VHH)
VHH: QVQLQESGGGSVQAGGSLRLSCAASGFTYSNYCMAWFRQAPGKEREGVAAIDSDGSTSYADSVKGRFTISQDNAKNTLYLQMNSLKPEDTAMYYCAAGNKKPYQLCNTDSRRYYHWGQGTQVTVSS
notes: as for B1
B12: Nb-15 (VHH)
VHH: QVQLQESGGGSVQAGGSLRLSCVVFGNIFRNYCMAWFRQAPGKEREGVVVIYTGGGSTYYADSVKGRFTISQDNAKNTVYLQMNSLKHEDTAMYYCAADQTTRYSSDYVNVGPCDMDSWGKGTQVTVSS
notes: as for B1
B13: Nb-17 (VHH)
VHH: QVQLQESGGGSAQAGGSLRLSCAASRYTSSSNAMGWFRQAPGKQREWVAGSDTGAGITCNAASVKGRFTISQDVAKNTVYLQMNSLKPEDTAVYYCAADWFRGAFCSGDADFRYWGQGTQVTVSS
notes: as for B1
B14: Nb-08 (VHH)
VHH: QVQLQESGGGSVQAGGSLRLSCAASGYTSSRKYIGWFRQAPGKQREWVAGIDTGAGGTCTIASVQGRFTISQDVAKNTLYLQIDSLKPEDTAVYYCAADWVRGGFCSGDADFRYWGQGTQVTVSS
notes: as for B1
B15: Nb-14 (VHH)
VHH: QVQLQEFGGGSVQAGGSLRLSCVASGFTFSNYCMGWFRQDPGKEREAVARIFVDGSTRYADAVKGRFTISKDNAKNTLYVQINSLKPEDTAMYYCTTPFPWTLCVDGPGAYKYWGQGTQVTVSS
notes: as for B1
B16: Nb-02 (VHH)
VHH: QVQLQESGGGSVQAGGSLRLSCAASRDTYTRYFMGWFRQTPGKEGEGVAVLLPGGDYTFYADSVKGRFTITQDSAKNTVYLQMNSLKPEDTAMYYCAADVTVGSRWSQASNYNYWGQGTQVTVSS
notes: as for B1
B17: Nb-12 (VHH)
VHH: B16 VHH with G45P, D56A
notes: as for B1
B18: Nb-18 (VHH)
VHH: QVQLQESGGGSVQTGGSLRLSCAASGLTSTTKYMGWFRQAPGKEREGVAGIYISSGATYYDDSVKGRFTISQDNAKNTVYLHINSLEPDDTAMYYCAASVLSVFRPLSSNQYHYWGQGTQVTVSS
notes: as for B1
B19: Nb-06 (VHH)
VHH: QVQLQESGGGSVQAGGSLRLSCAASGYAYTRNCMGWFRQAPGKEREEVATINLGGGSTYYADSVKGRFAISQDNAKNTVYLQMNNLKPEDTAMYYCAAIAQYGGSLCSNFGWYNLWGQGTQVTVSS
notes: as for B1
B20: Nb-04 (VHH)
VHH: QVQLQESGGGSVQAGGSLRLSCTASGFTVDDSGMGWYRQAPGNECELVSTISSDGSTYYADSVKGRFTISQDNAKNTVYLQMNSLKPEDTAVYYCAAPRVGVGWVRPCDYEYNYWGQGTQVTVSS
notes: as for B1
B21: hcIgG-04 (antibody, V domains shown)
VH: B20 VHH
notes: also called heavy-chain antibody of Nb-04
B22: Nb-11 (VHH)
VHH: B20 VHH with A14T, V29F, D31A, S32A, G33D, T50I
notes: as for B1
B23: Nb-21 (VHH)
VHH: QVQLQESGGGSVQAGGSLRLSCRTSGYTNNLKSMAWFRQAPGKEREAVASIHNNGGPTYDYYAESVKGRFAISQDNAKNTLYLQMSSAKPEDTAVYYCAADNRFLGSGSWRLPSLYNYWGQGTQVTVSS
notes: as for B1

Legend:
human GITR-His [1] = biological target: T1, human GITR-His; assay: PE-ELISA, crude nanobody on coated GITR-His, anti-HA detection
Method: (§1) (2) crude antibodies were obtained by a conventional osmotic shock method, and the crude antibodies were transferred to an enzyme-labeled plate (Nunc) coated with the antigen GITR-His overnight, and incubated at room temperature for 1 h;
(3) unbound antibodies were washed off with PBST, then mouse anti-HA tag antibody (SinoBiological) was added, and placed at room temperature for 1 h;

human GITR-His [2] = biological target: T1, human GITR-His; assay: PE-ELISA, sample OD against reference OD
Method: as §1

human GITR-His [3] = biological target: T1, human GITR-His; assay: ForteBio BLI, antibody on AHQ tip, human GITR-His 100 nM in solution, 1:1 model
Method: (2) Experimental procedure: 100 μl of SD buffer and antibodies (hcIgG-02, hcIgG-03, hcIgG-04, hcIgG-07, hcIgG-09, hcIgG-10, hcIgG-16 and hcIgG-20, control antibody), GITR-His (Acro biosystems) were added to a 96-well half-volume black polystyrene microplate. The plate was arranged according to the positions of the samples, the position of the sensor was selected, and the operation procedures were set as: Baseline, Loading ˜1 nm, Baseline, Association and Dissociation, each running for a time depending on the binding and dissociation rates of the sample, at a rotation speed of 400 rpm and a temperature of 30° C.
(3) A 1:1 binding model was adopted for kinetic analysis.

Binder	Sample OD (+) (human GITR-His [1])	Ratio (+/-) (human GITR-His [2])	Kd (human GITR-His [3]) [nM]	koff (human GITR-His [3]) [s⁻¹]	kon (human GITR-His [3]) [M⁻¹ s⁻¹]
B1	1.41 OD (405 nm)	12.2	–	–	–
B2	0.786 OD (405 nm)	11.7	–	–	–
B3	0.263 OD (405 nm)	3.29	–	–	–
B4	0.467 OD (405 nm)	6.23	–	–	–
B5	1.41 OD (405 nm)	21.5	–	–	–
B6	1.67 OD (405 nm)	20.7	–	–	–
B7	2.35 OD (405 nm)	32.6	–	–	–
B8	2.27 OD (405 nm)	29.9	–	–	–
B9	1.45 OD (405 nm)	23.1	–	–	–
B10	0.606 OD (405 nm)	10	–	–	–
B11	1.32 OD (405 nm)	18.5	–	–	–
B12	1.25 OD (405 nm)	5.04	–	–	–
B13	1.04 OD (405 nm)	15.1	–	–	–
B14	1.71 OD (405 nm)	23	–	–	–
B15	0.46 OD (405 nm)	4	–	–	–
B16	1.43 OD (405 nm)	20.7	–	–	–
B17	0.444 OD (405 nm)	4.53	–	–	–
B18	1.01 OD (405 nm)	9.8	–	–	–
B19	0.314 OD (405 nm)	3.31	–	–	–
B20	1.63 OD (405 nm)	22	–	–	–
B21	–	–	7.92	0.00202	256000
B22	0.552 OD (405 nm)	7.78	–	–	–
B23	0.522 OD (405 nm)	7.55	–	–	–
